{"source": "patent EP1662255A2", "about": "(THE JOHNS HOPKINS UNIVERSITY SCHOOL OF MEDICINE, dated 2006)", "binders": {"B1": {"name": "SAP102 PDZ1-3 (GST fusion) (other, UniProt Q62936 149-484, looked up)", "chain": "EIVLERGNSGLGFSIAGGIDNPHVPDDPGIFITKIIPGGAAAMDGRLGVNDCVLRVNEVDVSEVVHSRAVEALKEAGPVVRLVVRRRQPPPETIMEVNLLKGPKGLGFSIAGGIGNQHIPGDNSIYITKIIEGGAAQKDGRLQIGDRLLAVNNTNLQDVRHEEAVASLKNTSDMVYLKVAKPGSLHLNDMYAPPDYASTFTALADNHISHNSSLGYLGAVESKVTYPAPPQVPPTRYSPIPRHMLAEEDFTREPRKIILHKGSTGLGFNIVGGEDGEGIFVSFILAGGPADLSGELRRGDRILSVNGVNLRNATHEQAAAALKRAGQSVTIVAQYR", "notes": "domain: PDZ 1-3; also called SAP102 PDZI-3; not shown: glutathione S-transferase fusion partner"}, "B2": {"name": "GRIP PDZ 4-6 (GST fusion) (other, UniProt P97879 471-754, looked up)", "chain": "EVVLTADPVTGFGIQLQGSVFATETLSSPPLISYIEADSPAERCGVLQIGDRVMAINGIPTEDSTFEEANQLLRDSSITSKVTLEIEFDVAESVIPSSGTFHVKLPKKHSVELGITISSPSSRKPGDPLVISDIKKGSVAHRTGTLELGDKLLAIDNIRLDSCSMEDAVQILQQCEDLVKLKIRKDEDNSDEQESSGAIIYTVELKRYGGPLGITISGTEEPFDPIIISSLTKGGLAERTGAIHIGDRILAINSSSLKGKPLSEAIHLLQMAGETVTLKIKKQT", "notes": "domain: PDZ 4-6; also called PDZ domains of GRIP; not shown: glutathione S-transferase fusion partner"}}, "key": {"[1]": {"molecular_target": "T1, carboxy-terminal 347 amino acids of GKAP-3 (amino-terminal myc tag) (rat, UniProt P97838 631-977)", "T1 construct": "domain: carboxy-terminal 347 amino acids; also called GKAP-3/SAPAP3 carboxy-terminus", "T1 sequence (looked up)": "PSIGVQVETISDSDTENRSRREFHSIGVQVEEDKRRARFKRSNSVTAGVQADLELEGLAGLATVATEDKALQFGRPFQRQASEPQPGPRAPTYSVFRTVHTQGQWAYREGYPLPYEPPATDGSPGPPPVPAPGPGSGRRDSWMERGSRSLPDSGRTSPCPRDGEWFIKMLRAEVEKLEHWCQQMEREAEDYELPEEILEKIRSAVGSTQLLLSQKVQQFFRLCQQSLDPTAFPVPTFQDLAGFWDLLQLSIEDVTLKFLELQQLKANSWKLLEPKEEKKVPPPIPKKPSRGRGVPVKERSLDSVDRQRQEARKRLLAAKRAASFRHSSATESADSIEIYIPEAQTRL", "experiment": "GST pulldown from HEK293 lysate"}, "[2]": {"molecular_target": "B2", "experiment": "GST pulldown from extracts of heterologous cells"}, "[3]": {"molecular_target": "B1", "experiment": "GST pulldown from extracts of heterologous cells"}, "[4]": {"molecular_target": "T2, GKAP1 (native, rat brain extracts) (rat, UniProt P97836 1-992)", "T2 construct": "mature", "T2 sequence (looked up)": "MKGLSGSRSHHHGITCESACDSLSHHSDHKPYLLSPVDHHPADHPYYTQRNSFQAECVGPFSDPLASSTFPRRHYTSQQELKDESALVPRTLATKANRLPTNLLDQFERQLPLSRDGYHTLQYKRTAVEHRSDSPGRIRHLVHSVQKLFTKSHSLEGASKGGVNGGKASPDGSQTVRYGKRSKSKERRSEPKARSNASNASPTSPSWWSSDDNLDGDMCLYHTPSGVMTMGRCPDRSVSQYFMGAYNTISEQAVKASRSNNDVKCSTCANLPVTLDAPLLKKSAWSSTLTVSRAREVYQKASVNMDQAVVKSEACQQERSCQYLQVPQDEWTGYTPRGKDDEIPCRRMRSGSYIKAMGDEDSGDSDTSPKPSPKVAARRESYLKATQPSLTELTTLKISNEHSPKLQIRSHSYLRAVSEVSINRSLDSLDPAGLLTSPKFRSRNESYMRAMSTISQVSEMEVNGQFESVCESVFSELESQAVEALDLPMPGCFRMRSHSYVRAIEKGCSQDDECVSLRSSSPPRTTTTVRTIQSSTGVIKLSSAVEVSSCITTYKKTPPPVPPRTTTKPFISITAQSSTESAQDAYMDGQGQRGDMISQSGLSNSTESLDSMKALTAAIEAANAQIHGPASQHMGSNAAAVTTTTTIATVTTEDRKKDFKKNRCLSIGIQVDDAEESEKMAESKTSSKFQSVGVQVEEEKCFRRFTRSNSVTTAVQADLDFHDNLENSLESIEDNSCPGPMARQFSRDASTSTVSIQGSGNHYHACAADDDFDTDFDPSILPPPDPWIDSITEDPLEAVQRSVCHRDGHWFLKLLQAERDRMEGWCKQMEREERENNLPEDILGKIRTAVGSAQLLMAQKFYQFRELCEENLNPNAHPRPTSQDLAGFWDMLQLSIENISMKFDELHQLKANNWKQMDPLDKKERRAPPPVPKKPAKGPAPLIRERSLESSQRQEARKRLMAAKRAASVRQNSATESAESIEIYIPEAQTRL", "experiment": "GST pull-down from rat brain extracts"}}}
{"binder": "B1", "values": [{"measurement": "binding result", "setting": "[1]", "result": "no binding"}]}
{"binder": "B2", "values": [{"measurement": "binding result", "setting": "[1]", "result": "no binding"}]}
{"binder": "recombinant mGluR5 carboxy-terminal 241 amino acid peptide (receptor, UniProt P31424 963-1203, looked up, domain: carboxy-terminal 241 amino acids; Expressed in heterologous cells for GST pulldown; also called mGluR5 carboxy-terminal tail; mGluR5 C-terminal tail) AAGGGSGPGVAGAGNAGCTATGGPEPPDAGPKALYDVAEAEESFPAAARPRSPSPISTLSHLAGSAGRTDDDAPSLHSETAARSSSSQGSLMEQISSVVTRFTANISELNSMMLSTAATPGPPGTPICSSYLIPKEIQLPTTMTTFAEIQPLPAIEVTGGAQGATGVSPAQETPTGAESAPGKPDLEELVALTPPSPFRDSVDSGSTTPNSPVSESALCIPSSPKYDTLIIRDYTQSSSSL", "values": [{"measurement": "binding result", "setting": "[2]", "result": "no binding"}, {"measurement": "binding result", "setting": "[3]", "result": "no binding"}]}
{"binder": "GST-GKAP(carboxy-terminal) (other, UniProt P97836-5 591-666, looked up, domain: carboxy-terminal 76 amino acids; also called carboxy-terminal 76 amino acids of GKAP1a fused to GST; not shown: glutathione S-transferase fusion partner) MDPLDKKERRAPPPVPKKPAKGPAPLIRERSLESSQRQEARKRLMAAKRAASVRQNSATESAESIEIYIPEAQTRL", "values": [{"measurement": "binding result", "setting": "[4]", "result": "no binding"}]}
